Changes are numbered by the printed parent chain. Like-named read-outs stand apart in the source and are kept apart here.
B1: STEAP-1 TCB Molecule F: "2+1 IgG CrossFab, inverted" with charge modifications (VH/VL exchange in CD3 binder, charge modification in STEAP-1 binders) (bispecific antibody)
heavy 1: EVQLVESGGGLVQPGGSLRLSCAVSGYSITSDYAWNWVRQAPGKGLEWVGYISNSGSTSYNPSLKSRFTISRDNSKNTLYLQMNSLRAEDTAVYYCARERNYDYDDYYYAMDYWGQGTLVTVSSASTKGPSVFPLAPSSKSTSGGTAALGCLVEDYFPEPVTVSWNSGALTSGVHTFPAVLQSSGLYSLSSVVTVPSSSLGTQTYICNVNHKPSNTKVDEKVEPKSCDKTHTCPPCPAPEAAGGPSVFLFPPKPKDTLMISRTPEVTCVVVDVSHEDPEVKFNWYVDGVEVHNAKTKPREEQYNSTYRVVSVLTVLHQDWLNGKEYKCKVSNKALGAPIEKTISKAKGQPREPQVCTLPPSRDELTKNQVSLSCAVKGFYPSDIAVEWESNGQPENNYKTTPPVLDSDGSFFLVSKLTVDKSRWQQGNVFSCSVMHEALHNHYTQKSLSLSP
heavy 2: not shown
light 1: DIQMTQSPSSLSASVGDRVTITCKSSQSLLYRSNQKNYLAWYQQKPGKAPKLLIYWASTRESGVPSRFSGSGSGTDFTLTISSLQPEDFATYYCQQYYNYPRTFGQGTKVEIKRTVAAPSVFIFPPSDRKLKSGTASVVCLLNNFYPREAKVQWKVDNALQSGNSQESVTEQDSKDSTYSLSSTLTLSKADYEKHKVYACEVTHQGLSSPVTKSFNRGEC
light 2: EVQLLESGGGLVQPGGSLRLSCAASGFTFSTYAMNWVRQAPGKGLEWVSRIRSKYNNYATYYADSVKGRFTISRDDSKNTLYLQMNSLRAEDTAVYYCVRHGNFGNSYVSWFAYWGQGTLVTVSSASVAAPSVFIFPPSDEQLKSGTASVVCLLNNFYPREAKVQWKVDNALQSGNSQESVTEQDSKDSTYSLSSTLTLSKADYEKHKVYACEVTHQGLSSPVTKSFNRGEC
B2: STEAP-1 TCB Molecule C: "2+1 IgG CrossFab, inverted" with charge modifications (CH1/CL exchange in CD3 binder, charge modification in STEAP-1 binders) (bispecific antibody)
light: B1 light 1
heavy: B1 heavy 1 with N74T
chain 1: not shown
chain 2: QAVVTQEPSLTVSPGGTVTLTCGSSTGAVTTSNYANWVQEKPGQAFRGLIGGTNKRAPGTPARFSGSLLGGKAALTLSGAQPEDEAEYYCALWYSNLWVFGGGTKLTVLSSASTKGPSVFPLAPSSKSTSGGTAALGCLVKDYFPEPVTVSWNSGALTSGVHTFPAVLQSSGLYSLSSVVTVPSSSLGTQTYICNVNHKPSNTKVDKKVEPKSC
B3: STEAP-1 TCB Molecule A: "2+1 IgG CrossFab, inverted" with charge modifications (VH/VL exchange in CD3 binder, charge modification in STEAP-1 binders) (bispecific antibody)
heavy 1: not shown
heavy 2: B1 heavy 1 with N74T
light 1: B1 light 1
light 2: B1 light 2
B4: STEAP-1 TCB Molecule E: "1+1 IgG CrossMab" with charge modifications (VH/VL exchange in CD3 binder, charge modification in STEAP-1 binder) (bispecific antibody)
heavy 1: B1 heavy 1 with N74T
heavy 2: not shown
light 1: B1 light 1
light 2: B1 light 2
B5: STEAP-1 TCB Molecule B: "2+1 IgG CrossFab, inverted" without charge modifications (VH/VL exchange in CD3 binder) (bispecific antibody)
light: B1 light 2
chain 1: B1 heavy 1 with N74T, E154K, E220K
chain 2: not shown
chain 3: not shown

Columns and labels:
[1] = target: T1, human STEAP-1 (Six-transmembrane epithelial antigen of prostate 1) (human, UniProt Q9UHE8 1-339); experiment: cell-based or functional assay
T1 sequence (Q9UHE8 whole entry): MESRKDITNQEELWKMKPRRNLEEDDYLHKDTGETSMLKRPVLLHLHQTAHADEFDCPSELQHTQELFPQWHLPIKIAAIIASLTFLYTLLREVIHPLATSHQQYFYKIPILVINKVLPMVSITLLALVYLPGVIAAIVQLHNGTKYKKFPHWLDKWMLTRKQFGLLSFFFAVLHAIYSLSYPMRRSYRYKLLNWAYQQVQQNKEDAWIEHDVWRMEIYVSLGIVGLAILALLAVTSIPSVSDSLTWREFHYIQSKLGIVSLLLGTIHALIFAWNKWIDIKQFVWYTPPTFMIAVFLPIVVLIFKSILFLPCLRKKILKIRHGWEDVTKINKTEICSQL

[2] = target: T1, human STEAP-1 (Six-transmembrane …); experiment: cell-based or functional assay; remark: listed apart in the source
[3] = target: T1, human STEAP-1 (Six-transmembrane …); experiment: cell-based or functional assay; remark: listed apart in the source
[4] = target: T1, human STEAP-1 (Six-transmembrane …); experiment: cell-based or functional assay; remark: listed apart in the source
[5] = target: T1, human STEAP-1 (Six-transmembrane …); experiment: cell-based or functional assay; remark: listed apart in the source
[6] = target: T1, human STEAP-1 (Six-transmembrane …); experiment: cell-based or functional assay; remark: listed apart in the source
human CD3 [7] = target: T2, human CD3 (human, UniProt P07766 23-207); experiment: flow cytometry on Jurkat cells
T2 construct: In the assays CD3 stood as the native complex on Jurkat cells, Jurkat-NFAT reporter cells or primary human T cells; also called CD3 epsilon
T2 sequence (P07766 23-207 limits assumed): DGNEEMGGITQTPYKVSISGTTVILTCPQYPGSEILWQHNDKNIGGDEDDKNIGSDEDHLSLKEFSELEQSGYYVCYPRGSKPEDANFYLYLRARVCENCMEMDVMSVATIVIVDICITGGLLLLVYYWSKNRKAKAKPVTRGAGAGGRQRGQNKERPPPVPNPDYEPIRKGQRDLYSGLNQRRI

[8] = target: T1, human STEAP-1 (Six-transmembrane …); experiment: cell-based or functional assay; remark: listed apart in the source
[9] = target: T1, human STEAP-1 (Six-transmembrane …); experiment: flow cytometry on CHO-hSTEAP1 clone 2 cells, anti-human Fc secondary antibody
Method: The binding of STEAP-1 TCB molecules was tested, using STEAP-1-expressing CHO-hSTEAP1, clone 2 cells (an epithelial cell line derived from hamster ovary, that was transfected to stably overexpress human STEAP-1) and CD3-expressing immortalized T lymphocyte cells (Jurkat, DSMZ #ACC 282).
Briefly, adherent CHO-hSTEAP1 cells were harvested, using Cell Dissociation Buffer (Gibco, #13151014) counted, checked for viability and re-suspended at 2×10⁶ cells/ml in FACS buffer (100 μl PBS 0.1% BSA). Jurkat suspension cells were also harvested, counted and checked for viability. 100 μl of cell suspension (containing 0.2×10⁶ cells) were incubated in round-bottom 96-well plate for 30 min at 4° C. with increasing concentrations of the STEAP-1 TCB (31 pM-500 nM), washed twice with cold PBS containing 0.1% BSA (FACS buffer), re-incubated for further 30 min at 4° C. with the 1:50 pre-diluted FITC- or Alexa Fluor 647-conjugated AffiniPure F(ab′)2 Fragment goat-human IgG Fcg Fragment Specific secondary antibody (Jackson Immuno Research Lab, FITC #109-096-098, binding to Jurkats, or Jackson Immuno Research Lab, Alexa Fluor 647 #109-606-008, for binding to CHO-hSTEAP1, dilutions in FACS buffer) and washed twice with cold PBS 0.1% BSA. […] Staining was analyzed by FACS using a FACS Canto II (Software FACS Diva). […]

human CD3 [10] = target: T2, human CD3; experiment: cell-based or functional assay

| Binder | EC50 [pM] 24 h, T-cell mediated killing of LnCAP cells (LDH release, human PBMCs, E:T 10:1) [1] | EC50 [pM] 24 h, T-cell mediated killing of MKN45 cells (LDH release, human PBMCs, E:T 10:1) [1] | EC50 [pM] 24 h, T-cell mediated lysis of LnCaP cells (LDH release) [2] | EC50 [pM] 48 h, T-cell mediated lysis of LnCaP cells (LDH release) [2] | EC50 [nM], activation of Jurkat-NFAT reporter cells (luminescence after 6 h) with LnCaP cells [3] | EC50 [pM] 24 h, STEAP-1 TCB-mediated lysis of LnCaP cells (LDH release) [4] | EC50 [pM] 48 h, STEAP-1 TCB-mediated lysis of LnCaP cells (LDH release) [4] | EC50 [nM], activation of Jurkat-NFAT reporter cells (luminescence after 6 h), presence of CHO-hSTEAP1 [5] | EC50 [nM], activation of Jurkat-NFAT reporter cells (luminescence after 6 h), presence of CHO-hSTEAP1 [6] | EC50 [nM], activation of Jurkat-NFAT reporter cells (luminescence after 6 h), presence of LnCaP cells [6] | binding result (human CD3 [7]) | EC50 (pM), activation of primary T cells with LnCaP cells, 48 h: % CD4 + CD25+ [8] | EC50 (pM), activation of primary T cells with LnCaP cells, 48 h: % CD4 + CD69+ [8] | EC50 (pM), activation of primary T cells with LnCaP cells, 48 h: % CD8 + CD25+ [8] | EC50 (pM), activation of primary T cells with LnCaP cells, 48 h: % CD8 + CD69+ [8] | EC50 [9] | EC50 [nM], activation of Jurkat-NFAT reporter cells (luminescence after 6 h), presence of STEAP-1-negative CHO-K1 (human CD3 [10]) |
| --- | --- | --- | --- | --- | --- | --- | --- | --- | --- | --- | --- | --- | --- | --- | --- | --- | --- |
| B1 | 100 pM | 1500 pM |  |  |  |  |  |  |  |  |  |  |  |  |  |  |  |
| B2 |  |  | 152 pM | 12.8 pM | 39.5 nM |  |  |  |  |  |  |  |  |  |  |  |  |
| B3 |  |  | 36.8 pM | 31.4 pM | 3.58 nM | 13.7 pM | 6.35 pM | 0.1 nM | 7.19 nM | 1.36 nM | binds | 447 pM | 300 pM | 271 pM | 124 pM | 20.2 nM |  |
| B4 |  |  |  |  |  | 1860 pM | 1560 pM | 0.79 nM | 0.51 nM | 0.054 nM |  | 7960 pM | 4310 pM | 5060 pM | 588 pM |  | 18.8 nM |
| B5 |  |  | 95.7 pM | 22.9 pM | 5.73 nM |  |  |  |  |  |  |  |  |  |  |  |  |
